Results: US9555076B2, “Neuregulin based methods and compositions for treating cardiovascular diseases” (Zensun (Shanghai) Science & Technology, Co., Ltd., priority 2002, dated 2017)
“And” between values parts separate entries of the source, which are not always exact repeats. Equal entries are not always repeated.

What was measured:
[1] = tested on: toxic myocarditis caused by Adriamycin in rat; assay: Hemodynamics index, Adriamycin rat model; assay type: in vivo, SD rat; conditions: rat, Adriamycin model
Method: rhNRG-1 β was injected into the tail vein within 24 hours after the first injection of Adriamycin. During the experiment, animal survival was dynamically monitored, heart function indexes (maximal rate of pressure increase within left ventricle, […], maximal rate of pressure decrease within left ventricle, −dp/dt, systolic end pressure of left ventricle LVPmax, diastolic end pressure of left ventricle LVPmin) were monitored at the 5th week. Section was made from the heart tissue and pathological changes examined.
Hemodynamics index such as carotid artery pressure, intra-ventricular pressure. dp/dt was measured with six lead physiology recorder. Major procedure: separate the right carotid artery, ligate its distal end and block its proximal end with arterial clamps, 20 G arteriovenous indwelling needle was inserted into the carotid artery, took out the medal stylet, loosened the artery clamps, push the plastic trocar further into appropriate depth, indwelled for 10 minutes, observed the wave style recorded by the physiology recorder, after it was stable, then recorded the carotid artery pressure and push the trocar further into the left ventricle, kept in place for 15 minutes, after it was stable, then recorded the dp/dt, −dp/dt, LVPmax and LVPmin.

[2] = tested on: acute myocardial injury caused by viral (Coxsackie B3) infection in mice; assay: Serum troponin I (cTnI), mice infected with Coxsackie B3 virus; assay type: in vivo, BALB/C mice
Method: Severity of myocardial injury was evaluated through determination of the amount of serum cTnI release, with advantage of high specificity and high sensitivity when comparing with other traditional index such as CK, LDH and AST. Therefore, serum cTnI content determination was used as an objective index reflecting the severity of myocardial injury.
At the 8th day of viral injection, body weight of the mice was measured and blood withdrawn from the orbit, serum separated, stored in −20° C. refrigerator and serum cTnI determination with luminous reaction carried out.

[3] = 10 μg/kg iv qd × 10 d, (I), listed as rhNRG-1β
[4] = 20 μg/kg iv qd × 10 d, (I), listed as rhNRG-1β
[5] = 40 μg/kg iv qd × 10 d, (I), listed as rhNRG-1β

B1: rhNRG-1 β: Recombinant human neuregulin fragment of 61 amino acid (SEQ ID NO:4), 3 disulfide bonds, expressed in E. coli (protein, listed as Homo sapiens)
chain: SHLVKCAEKEKTFCVNGGECFMVKDLSNPSRYLCKCPNEFTGDRCQNYVMASFYKAEELYQ
modifications: disulfide (positions not given here)
- +dp/dt ([1]; 10 μg/kg iv qd × 10 d, (I)): 4875±636 mmHg/s and 4875 mmHg/s
- LVPmax ([1]; 10 μg/kg iv qd × 10 d, (I)): 145±15.2 mmHg and 145 mmHg
- LVPmin ([1]; 10 μg/kg iv qd × 10 d, (I)): −24.5 mmHg
- −dp/dt ([1]; 10 μg/kg iv qd × 10 d, (I)): −3672±884 mmHg/s and −3672 mmHg/s
- +dp/dt [1, 3]: 4875±636 mmHg/s
- LVPmax [1, 3]: 145±15.2 mmHg
- −dp/dt [1, 3]: −3672±884 mmHg/s
- +dp/dt ([1]; 10 μg/kg iv qd × 10 d, (II)): 4956 mmHg/s
- LVPmax ([1]; 10 μg/kg iv qd × 10 d, (II)): 158.2 mmHg
- LVPmin ([1]; 10 μg/kg iv qd × 10 d, (II)): −22.4 mmHg
- −dp/dt ([1]; 10 μg/kg iv qd × 10 d, (II)): −3626 mmHg/s
- +dp/dt ([1]; 20 μg/kg iv qd × 10 d, (I)): 6107±418 mmHg/s and 6107 mmHg/s
- LVPmax ([1]; 20 μg/kg iv qd × 10 d, (I)): 156.1±17.7 mmHg and 156.1 mmHg
- LVPmin ([1]; 20 μg/kg iv qd × 10 d, (I)): −26.9 mmHg
- −dp/dt ([1]; 20 μg/kg iv qd × 10 d, (I)): −4323±457 mmHg/s and −4323 mmHg/s
- +dp/dt [1, 4]: 6107±418 mmHg/s
- LVPmax [1, 4]: 156.1±17.7 mmHg
- −dp/dt [1, 4]: −4323±457 mmHg/s
- +dp/dt ([1]; 20 μg/kg iv qd × 10 d, (II)): 5833 mmHg/s
- LVPmax ([1]; 20 μg/kg iv qd × 10 d, (II)): 157.7 mmHg
- LVPmin ([1]; 20 μg/kg iv qd × 10 d, (II)): −26.6 mmHg
- −dp/dt ([1]; 20 μg/kg iv qd × 10 d, (II)): −4345 mmHg/s
- +dp/dt ([1]; 40 μg/kg iv qd × 10 d, (I)): 5954±689 mmHg/s and 5954 mmHg/s
- LVPmax ([1]; 40 μg/kg iv qd × 10 d, (I)): 165.7±22.7 mmHg and 165.7 mmHg
- LVPmin ([1]; 40 μg/kg iv qd × 10 d, (I)): −27.4 mmHg
- −dp/dt ([1]; 40 μg/kg iv qd × 10 d, (I)): −4794±954 mmHg/s and −4794 mmHg/s
- +dp/dt [1, 5]: 5954±689 mmHg/s
- LVPmax [1, 5]: 165.7±22.7 mmHg
- −dp/dt [1, 5]: −4794±954 mmHg/s
- +dp/dt ([1]; 40 μg/kg iv qd × 10 d, (II)): 6041 mmHg/s
- LVPmax ([1]; 40 μg/kg iv qd × 10 d, (II)): 166.3 mmHg
- LVPmin ([1]; 40 μg/kg iv qd × 10 d, (II)): −22.2 mmHg
- −dp/dt ([1]; 40 μg/kg iv qd × 10 d, (II)): −4529 mmHg/s
- cTnI Mean ± SD ([2]; 7.5 μg/kg iv qd × 5, 8th day, (I)): 29.05 ± 17.06 ng/mL
- cTnI Mean ± SD ([2]; 7.5 μg/kg iv qd × 5, 8th day, (I), listed as rhNRG-1β): 29.05 ± 17.06 ng/mL
- cTnI Mean ± SD ([2]; 7.5 μg/kg iv qd × 5, 8th day, (II)): 26.85 ± 15.20 ng/mL
- cTnI Mean ± SD ([2]; 15 μg/kg iv qd × 5, 8th day, (I)): 19.43 ± 10.76 ng/mL
- cTnI Mean ± SD ([2]; 15 μg/kg iv qd × 5, 8th day, (I), listed as rhNRG-1β): 19.43 ± 10.76 ng/mL
- cTnI Mean ± SD ([2]; 15 μg/kg iv qd × 5, 8th day, (II)): 15.59 ± 14.94 ng/mL
- cTnI Mean ± SD ([2]; 30 μg/kg iv qd × 3, (I)): 13.37 ± 9.53 ng/mL
- cTnI Mean ± SD ([2]; 30 μg/kg iv qd × 3, (II)): 12.32 ± 18.36 ng/mL
- cTnI Mean ± SD ([2]; 30 μg/kg iv qd × 5, 8th day, (I)): 7.98 ± 6.07 ng/mL
- cTnI Mean ± SD ([2]; 30 μg/kg iv qd × 5, 8th day, (I), listed as rhNRG-1β): 7.98 ± 6.07 ng/mL
- cTnI Mean ± SD ([2]; 30 μg/kg iv qd × 5, 8th day, (II)): 0.54 ± 0.53 ng/mL
- cTnI Mean ± SD ([2]; 30 μg/kg iv qd × 5, Example 5 (I)): 1.06 ± 1.32 ng/mL
- cTnI Mean ± SD ([2]; 30 μg/kg iv qd × 5, Example 5 (I), listed as rhNRG-1β): 1.06 ± 1.32 ng/mL
- cTnI Mean ± SD ([2]; 30 μg/kg iv qd × 5, Example 5 (II)): 0.44 ± 0.24 ng/mL
- cTnI Mean ± SD ([2]; 30 μg/kg iv qd × 7, (I)): 1.05 ± 1.2 ng/mL and 1.05 ± 1.20 ng/mL
- cTnI Mean ± SD ([2]; 30 μg/kg iv qd × 7, (I), listed as rhNRG-1β): 1.05 ± 1.20 ng/mL
- cTnI Mean ± SD ([2]; 30 μg/kg iv qd × 7, (II)): 0.51 ± 0.28 ng/mL
